B1: purified recombinant PKM1 (natural protein)
chain: not shown
notes: PKM1, the M1 splice isoform of pyruvate kinase M (PKM); also called purified PKM1; source: purified recombinant
B2: N13 peptide (mimic peptide of NUDT13 230–252 AA) (peptide, UniProt Q86X67 230-252, looked up)
peptide: GFCDIGESVEETIRREVAEEVGL
notes: The peptide was synthesized conjugated with the membrane-penetrating peptide iRGD (N13-iRGD); also called N13-iRGD; source: synthetic peptide

Assays:
recombinant human PARP1 = target: T1, recombinant human PARP1 (human, UniProt P09874 1-1014); assay: pull-down; in vitro pull-down of PKM1 and PARP1 (Figure 5E); conditions: both partners purified
T1 construct: PARP1 (poly ADP-ribose polymerase 1), human, recombinant; The source is named for the in vitro PARylation assay; source: bought: Sino Biological
T1 sequence (P09874 whole entry): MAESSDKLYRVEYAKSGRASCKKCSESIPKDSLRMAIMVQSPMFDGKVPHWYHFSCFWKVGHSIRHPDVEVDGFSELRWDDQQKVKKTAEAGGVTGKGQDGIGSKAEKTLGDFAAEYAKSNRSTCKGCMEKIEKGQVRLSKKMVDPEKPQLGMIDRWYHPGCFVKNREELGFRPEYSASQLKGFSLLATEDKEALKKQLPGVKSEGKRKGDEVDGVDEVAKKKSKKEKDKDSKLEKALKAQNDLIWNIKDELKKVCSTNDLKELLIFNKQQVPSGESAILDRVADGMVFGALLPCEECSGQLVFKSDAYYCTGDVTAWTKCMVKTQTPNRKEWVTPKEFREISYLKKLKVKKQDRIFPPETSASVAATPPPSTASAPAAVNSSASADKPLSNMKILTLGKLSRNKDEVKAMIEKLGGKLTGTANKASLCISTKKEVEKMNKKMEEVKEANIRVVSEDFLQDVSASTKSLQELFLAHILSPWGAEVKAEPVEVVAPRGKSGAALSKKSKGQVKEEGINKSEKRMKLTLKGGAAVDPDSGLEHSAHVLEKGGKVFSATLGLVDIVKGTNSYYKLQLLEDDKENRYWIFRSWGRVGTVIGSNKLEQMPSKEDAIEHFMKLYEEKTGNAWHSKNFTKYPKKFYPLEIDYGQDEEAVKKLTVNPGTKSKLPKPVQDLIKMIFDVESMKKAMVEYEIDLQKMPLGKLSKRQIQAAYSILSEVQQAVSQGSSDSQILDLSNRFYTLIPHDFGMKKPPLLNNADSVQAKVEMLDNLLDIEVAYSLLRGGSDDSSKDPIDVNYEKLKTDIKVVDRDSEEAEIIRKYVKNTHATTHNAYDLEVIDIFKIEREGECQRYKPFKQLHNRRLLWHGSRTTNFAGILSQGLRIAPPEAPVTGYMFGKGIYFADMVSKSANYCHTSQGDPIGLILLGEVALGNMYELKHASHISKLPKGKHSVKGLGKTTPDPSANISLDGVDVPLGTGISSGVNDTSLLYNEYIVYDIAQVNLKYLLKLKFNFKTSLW

[1] = target: B1; assay: pull-down; in vitro pull-down of N13 peptide with purified PKM1 or PKM2, Coomassie blue staining (Figure 7D); conditions: both partners purified

binding result (recombinant human PARP1)	binding result [1]	Binder
binds		B1
	binds	B2

— PMC11967829, “Nudix Hydrolase 13 Impairs the Initiation of Colorectal Cancer by Inhibiting PKM1 ADP‐Ribosylation” (Advanced Science, 2025)
